Assay [1] addresses VE-cadherin-VC (VE-cadherin ectodomain and transmembrane domain fused to the C-terminal Venus fragment) (human) (UniProt P33151). The assay can be described thus: split reporter (BiFC, NanoBiT); Venus BiFC (VN155 I152L with VC155 A206K) in live HEK293T cells, 0.5 ug of each construct, confocal microscopy 24 h after transfection; mean BiFC intensity per cell or BiFC/DeepRed ratio, compared with control pairings.

Another assay concerns the target T1, bFos BiFC construct (UniProt P01100 118-210).
T1 construct: transcription factor Fos, the construct called bFos
The assay can be described thus: split reporter (BiFC, NanoBiT); validation of the quantitative BiFC analysis with bJun/bFos (positive) and bJun/bΔFos (negative); BiFC/DeepRed ratio and mean BiFC intensity; details in S1-S4 Figs. The following applies: partners not purified.

VE-cadherin-VC (VE-cadherin ectodomain and transmembrane domain fused to the C-terminal Venus fragment) (human), sequence (P33151 26-625): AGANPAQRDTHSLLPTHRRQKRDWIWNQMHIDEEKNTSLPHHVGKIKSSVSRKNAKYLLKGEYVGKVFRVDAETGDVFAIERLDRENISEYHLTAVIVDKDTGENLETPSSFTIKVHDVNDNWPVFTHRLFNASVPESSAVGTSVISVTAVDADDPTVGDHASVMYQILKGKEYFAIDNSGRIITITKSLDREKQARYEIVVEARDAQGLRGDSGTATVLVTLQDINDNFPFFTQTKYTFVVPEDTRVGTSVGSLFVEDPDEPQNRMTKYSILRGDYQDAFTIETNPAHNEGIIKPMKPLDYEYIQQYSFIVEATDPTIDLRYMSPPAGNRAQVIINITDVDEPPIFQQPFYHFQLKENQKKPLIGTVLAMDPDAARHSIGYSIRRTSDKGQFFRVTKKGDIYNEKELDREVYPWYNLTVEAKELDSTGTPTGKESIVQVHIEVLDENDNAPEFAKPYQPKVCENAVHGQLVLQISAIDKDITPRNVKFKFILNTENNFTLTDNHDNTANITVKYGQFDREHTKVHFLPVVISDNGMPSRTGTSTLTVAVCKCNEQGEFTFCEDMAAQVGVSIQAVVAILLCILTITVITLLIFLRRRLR
T1 sequence (P01100 118-210): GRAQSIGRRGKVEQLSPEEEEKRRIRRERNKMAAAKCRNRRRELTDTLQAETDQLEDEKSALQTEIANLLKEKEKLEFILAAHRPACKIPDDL

Regarding “VE-PTP-VN (vascular endothelial protein tyrosine phosphatase, ectodomain and transmembrane domain, fused to the N-terminal Venus fragment) (domain or fragment)”, in assay [1], the S/N (median BiFC/DeepRed ratio over that of the negative pairing) was 6.5 and the fold mean BiFC value over controls was in the range of 2 to 3 fold.

B1: bJun BiFC construct (domain or fragment, UniProt P05412 257-318, looked up)
chain: RKRMRNRIAASKCRKRKLERIARLEEKVKTLKAQNSELASTANMLREQVAQLKQKVMNHVNS
notes: transcription factor Jun, the construct called bJun
In the case of B1, in the assay with bFos BiFC construct, the “S/N (median BiFC/DeepRed ratio of the positive pairing over that of the negative pairing bJun/bΔFos)” value was found to be 7.7 and the “fold difference in mean BiFC fluorescence intensity over bJun/bΔFos” value worked out at 6 fold.

For the origin of these results see PMC5604967, “Defining the molecular basis of interaction between R3 receptor-type protein tyrosine phosphatases and VE-cadherin” (PLoS ONE, 2017).
